# T1: PACAP38 (human, not fully specified)
# T1 peptide: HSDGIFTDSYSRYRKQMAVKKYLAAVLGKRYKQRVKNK
# T2: VIP (human)
# T2 construct: also called vasoactive intestinal peptide
# T2 peptide: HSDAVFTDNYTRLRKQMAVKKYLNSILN
# T3: PACAP27 (human, not fully specified)
# T3 peptide: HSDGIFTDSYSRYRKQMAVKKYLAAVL
# What was measured:
# PACAP38 [1] = biological target: T1, PACAP38; test: cell-based or functional assay
# PACAP38 [2] = biological target: T1, PACAP38; test: cell-based or functional assay
# PACAP38 [3] = biological target: T1, PACAP38; test: SPR (Biacore), 37 C, antibody captured via anti-human Fc, peptide analyte
# Method: (§1) In brief, antibody and peptide interaction was determined on a Biacore S200 (GE Healthcare) by method previously described (Andreu and Gomes 2002). An anti-Human IgG Fc capture antibody was immobilized on a CM5 biosensor chip via standard amine coupling. Anti-PACAP antibodies were injected and captured to 200 to 400 response units (RU),). PACAP38, PACAP27 and VIP were diluted in HBS-EP+ buffer containing 0.1% w/v BSA (Bovostar, catalog number BSAS1.0) and 0.15 M NaCl (Sigma-Aldrich catalog number S7653), pH 7.4. Binding kinetics of antibodies were determined by injection of two-fold serial dilutions of PACAPs (12 nm to 0 nM) and VIP (1200 nM to 0 nM) in running buffer at 37° C. with a flow rate of 40 μL/min for 2 min followed by a dissociation for 10 minutes. For subsequent cycles, the chip was regenerated using 0.85% phosphoric acid. Data was analysed with the Biacore S200 Evaluation Software (ver 1.0). Association rate (kₐ) and dissociation rate (kd) constants were determined using a simple one-to-one Langmuir binding model and used to calculate the equilibrium dissociation constant (KD).
# PACAP38 [4] = biological target: T1, PACAP38; test: SPR (Biacore S200) off-rate ranking, antibody captured from supernatant, single injection of 33.3 nM PACAP38
# Method: as §1, with “Binding kinetics of antibodies were determined by injection of two-fold serial dilutions of PACAPs (12 nm to 0 nM) and VIP (1200 nM to 0 nM) in running buffer at 37° C. with a flow rate of 40 μL/min for 2 min followed by a dissociation for 10 minutes.” left out
# VIP = biological target: T2, VIP; test: SPR (Biacore S200), 37 C, captured antibody, steady state affinity
# Method: as §1
# (§2) Due to very fast on-rate and off-rate with VIP, binding affinity at steady state was used.
# PACAP38 [5] = biological target: T1, PACAP38; test: SPR (Biacore S200), 37 C, captured antibody, peptide dilution series, 1:1 Langmuir fit
# Method: as §1, §2
# PACAP27 = biological target: T3, PACAP27; test: as above
# Method: as §1, §2
Binder,PACAP-38 IC50 (PACAP38 [1]),"IC50 (nM), PACAP-induced cAMP accumulation, CHO-K1 cells, cAMP-Glo (PACAP38 [2])",Kd (PACAP38 [3]),koff (PACAP38 [3]),kon (PACAP38 [3]),Kd (PACAP38 [4]),koff (PACAP38 [4]),kon (PACAP38 [4]),Kd (VIP),Kd (PACAP38 [5]),koff (PACAP38 [5]),kon (PACAP38 [5]),Kd (PACAP27),koff (PACAP27),kon (PACAP27)
"917B (antibody, V domains shown, Humanized anti-PACAP variant) VH: EVQLVQSGAEVKKPGSSVKVSCKASGGTFSDSYMHWVRQAPGQGLEWMGLIYPIFADTRYAQKFQGRVTITADESTSTAYMELSSLRSEDTAVYYCAIDQDGSFAYWGQGTLVTVSS VL: DIVMTQSPDSLAVSLGERATINCKSSQSLLDSDGKTYLNWLQQKPGQPPKRLIYLVSTRESGVPDRFSGSGSGTDFTLTISSLQAEDVAVYYCWQGTWFDLTFGGGTKVEIK",190 pM,0.19 nM,9.69 pM,0.000122 s⁻¹,1.26e+07 M⁻¹ s⁻¹,,,,,,,,,,
"604C (antibody, V domains shown) VH: EVQLVQSGAEVKKPGSSVKVSCKASGGTFSDSYMHWVRQAPGQGLEWMGLIYPIFADTRYAQKFQGRVTITADESTSTAYMELSSLRSEDTAVYYCAIDQDGSFAYWGQGTLVTVSS VL: DIVMTQSPDSLAVSLGERATINCKSSQSLLDSDGKTYLNWLQQKPGQPPKRLIYWASTRESGVPDRFSGSGSGTDFTLTISSLQAEDVAVYYCWQGTWFDLTFGGGTKVEIK",160 pM,,19.7 pM,0.000319 s⁻¹,1.62e+07 M⁻¹ s⁻¹,19.7 pM,0.000319 s⁻¹,1.62e+07 M⁻¹ s⁻¹,,,,,,,
"524C (antibody, V domains shown, LC S(27E), G29, L50, V51, K53T, L54R, D55E, H93W, P95D) VH: EVQLVQSGAEVKKPGSSVKVSCKASGGTFSDSYMHWVRQAPGQGLEWMGLIYPIFADQRYAQKFQGRVTITADESTSTAYMELSSLRSEDTAVYYCAIDQDASFAYWGQGTLVTVSS VL: DIVMTQSPDSLAVSLGERATINCKSSQSLLDSDGKTYLNWLQQKPGQPPKRLIYLVSTRESGVPDRFSGSGSGTDFTLTISSLQAEDVAVYYCWQGTWFDLTFGGGTKVEIK",360 pM,,35 pM,0.000546 s⁻¹,1.56e+07 M⁻¹ s⁻¹,,,,,,,,,,
"519C (antibody, V domains shown, LC S(27E), G29, L50, V51, K53T, L54R, D55E, H93W, P95D) VH: EVQLVQSGAEVKKPGSSVKVSCKASGGTFSDLYMHWVRQAPGQGLEWMGLIYPIFADTRYAQKFQGRVTITADESTSTAYMELSSLRSEDTAVYYCAIDQDGSFAYWGQGTLVTVSS VL: DIVMTQSPDSLAVSLGERATINCKSSQSLLDSDGKTYLNWLQQKPGQPPKRLIYLVSTRESGVPDRFSGSGSGTDFTLTISSLQAEDVAVYYCWQGTWFDLTFGGGTKVEIK",270 pM,,21.8 pM,0.000483 s⁻¹,2.22e+07 M⁻¹ s⁻¹,,,,,,,,,,

# Further lines, results first:
PACAP-38 IC50 (PACAP38 [1]),"IC50 (nM), PACAP-induced cAMP accumulation, CHO-K1 cells, cAMP-Glo (PACAP38 [2])",Kd (PACAP38 [3]),koff (PACAP38 [3]),kon (PACAP38 [3]),Kd (PACAP38 [4]),koff (PACAP38 [4]),kon (PACAP38 [4]),Kd (VIP),Kd (PACAP38 [5]),koff (PACAP38 [5]),kon (PACAP38 [5]),Kd (PACAP27),koff (PACAP27),kon (PACAP27),Binder
830 pM,0.83 nM,22.8 pM,0.00118 s⁻¹,5.17e+07 M⁻¹ s⁻¹,22.8 pM,0.00118 s⁻¹,5.17e+07 M⁻¹ s⁻¹,,,,,,,,"609C (antibody, V domains shown) VH: EVQLVQSGAEVKKPGSSVKVSCKASGGTFSDLYMHWVRQAPGQGLEWMGLIYPIFADTRYAQKFQGRVTITADESTSTAYMELSSLRSEDTAVYYCAIDQDGSFAYWGQGTLVTVSS VL: DIVMTQSPDSLAVSLGERATINCKSSQSLLDADGKTYLNWLQQKPGQPPKRLIYWASTRESGVPDRFSGSGSGTDFTLTISSLQAEDVAVYYCWQGTWFDLTFGGGTKVEIKR"
400 pM,0.4 nM,37.6 pM,0.000789 s⁻¹,2.1e+07 M⁻¹ s⁻¹,37.6 pM,0.000789 s⁻¹,2.1e+07 M⁻¹ s⁻¹,,,,,,,,"627C (antibody, V domains shown) VH: EVQLVQSGAEVKKPGSSVKVSCKASGGTFSDVYMHWVRQAPGQGLEWMGLIYPIFADTRYAQKFQGRVTITADESTSTAYMELSSLRSEDTAVYYCAIDQDGSFAYWGQGTLVTVSS VL: DIVMTQSPDSLAVSLGERATINCKSSQSLLDSDGKTYLNWLQQKPGQPPKRLIYWASTRESGVPDRFSGSGSGTDFTLTISSLQAEDVAVYYCWQGTWFDLTFGGGTKVEIKR"
150 pM,,17 pM,0.000566 s⁻¹,3.33e+07 M⁻¹ s⁻¹,17 pM,0.000566 s⁻¹,3.33e+07 M⁻¹ s⁻¹,225000 pM,32.8 pM,0.000565 s⁻¹,1.72e+07 M⁻¹ s⁻¹,154 pM,0.00101 s⁻¹,6.58e+06 M⁻¹ s⁻¹,"605C (antibody, V domains shown) VH: EVQLVQSGAEVKKPGSSVKVSCKASGGTFSDSYMHWVRQAPGQGLEWMGLIYPIFADTRYAQKFQGRVTITADESTSTAYMELSSLRSEDTAVYYCAIDQDGSFAYWGQGTLVTVSS VL: DIVMTQSPDSLAVSLGERATINCKSSQSLLDADGKTYLNWLQQKPGQPPKRLIYWASTRESGVPDRFSGSGSGTDFTLTISSLQAEDVAVYYCWQGTWFDLTFGGGTKVEIK"
700 pM,0.7 nM,28.4 pM,0.00204 s⁻¹,7.19e+07 M⁻¹ s⁻¹,28.4 pM,0.00204 s⁻¹,7.19e+07 M⁻¹ s⁻¹,,,,,,,,"608C (antibody, V domains shown) VH: EVQLVQSGAEVKKPGSSVKVSCKASGGTFSDLYMHWVRQAPGQGLEWMGLIYPIFADTRYAQKFQGRVTITADESTSTAYMELSSLRSEDTAVYYCAIDQDGSFAYWGQGTLVTVSS VL: DIVMTQSPDSLAVSLGERATINCKSSQSLLDSDGKTYLNWLQQKPGQPPKRLIYWASTRESGVPDRFSGSGSGTDFTLTISSLQAEDVAVYYCWQGTWFDLTFGGGTKVEIKR"
1300 pM,,86.6 pM,0.00584 s⁻¹,6.75e+07 M⁻¹ s⁻¹,,,,,,,,,,,"919A (antibody, V domains shown, Humanized anti-PACAP variant) VH: EVQLVQSGAEVKKPGSSVKVSCKASGGTFSDSYMHWVRQAPGQGLEWMGLIYPIFADTRYAQKFQGRVTITADESTSTAYMELSSLRSEDTAVYYCAIDYDGSFAYWGQGTLVTVSS VL: DIVMTQSPDSLAVSLGERATINCKSSQSLLDSDGKTYLNWLQQKPGQPPKRLIYLVSTRESGVPDRFSGSGSGTDFTLTISSLQAEDVAVYYCWQGTHFPLTFGGGTKVEIK"

# From patent US20260226154A1 (CEPHALON, published 2026)
